This series can be described thus: self-splicing fitness, log relative to wild type (ln ratio); higher = more splicing; Tetrahymena group I intron in knt gene, E. coli kanamycin selection, DiMSum; sequences stand for … in CUCUCU…GGAGGGAAAAGUUAUCAGGCAUGCACCUGGUAGCUAGUCUUUAAACCAAUAGAUUGCAUCGGUUUAAAAGGCAAGACCGUCAAAUUGCGGGAAAGGGGUCAACAGCCGUUCAGUACCAAGUCUCAGGGGAAACUUUGAGAUGGCCUUGCAAAGGGUAUGGUAAUAAGCUGACGGACAUGGUCCUAACCACGCAGCCAAGUCCUAAGUCAACAGAUCUUCUGUUGAUAUGGAUGCAGUUCACAGACUAAAUGUCGGUCGGGGAAGAUGUAUUCUUCUCAUAAGAUAUAGUCGGACCUCUCCUUAAUGGGAGCUAGCGGAUGAAGUGAUGCAACACUGGAGCCGCUGGGAACUAAUUUGUAUGCGAAAGUAUAUUGAUUAGUUUUGGAGUACUCGUGGUCG
The essentials: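 A randomised library covering all eight P1ex-region intron nucleotides was built with the intron in the knt kanamycin-resistance gene on pET-22b(+) and held in E. coli BL21(DE3). Cells were grown overnight at 37°C or 30°C on LB agar, with or without 25 μg/mL kanamycin, plus 100 μg/mL carbenicillin, 50 μM IPTG and 0.2% rhamnose, and pooled colonies were amplicon-sequenced on an Illumina HiSeq 2500. DiMSum fitness is the error-weighted combination of wild-type-normalised replicate fold changes, kanamycin versus none.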

± gives the uncertainty stated by the source.

CCGGAGCAAUAUUACGUACG: the “self-splicing fitness (ln)” value is -0.407 ± 0.14 (30 °C) and -0.609 ± 0.18 (37 °C).

For CCGGAGCAAUAUUACGUCAG, the “self-splicing fitness (ln)” value (30 °C) is -1.42 ± 0.12 and the “self-splicing fitness (ln)” value (37 °C) is -1.17 ± 0.15. Turning to CCGGAGCAAUAUUACGUGUC, the “self-splicing fitness (ln)” value runs as follows: (30 °C) -3.36 ± 0.14; (37 °C) -2.82 ± 0.14. On to CCGGAGCAAUAUUACGUUAA, for which the “self-splicing fitness (ln)” value runs as follows: (30 °C) -2.42 ± 0.26; (37 °C) -1.93 ± 0.41. As to CCGGAGCAAUAUUACGUUAG, the “self-splicing fitness (ln)” value (30 °C) was -1.47 ± 0.078 and the “self-splicing fitness (ln)” value (37 °C) was -0.769 ± 0.11. Regarding CCGGAGCAAUAUUACGUUCU, for the setting “30 °C”, the “self-splicing fitness (ln)” value is -1.23 ± 0.14. For CCGGAGCAAUAUUACGUUUU, the “self-splicing fitness (ln)” value (30 °C) is -3.67 ± 0.3 and the “self-splicing fitness (ln)” value (37 °C) is -2.6 ± 0.38.

With CCGUAGCAAUAUUACGACCG, the “self-splicing fitness (ln)” value (30 °C) is -0.302 ± 0.12 and the “self-splicing fitness (ln)” value (37 °C) came out at 0.31 ± 0.2. Turning to CCGUAGCAAUAUUACGAGCA, where the note is “37 °C”, the “self-splicing fitness (ln)” value was -1.37 ± 0.33.

In the case of CCGUAGCAAUAUUACGAGGU, the “self-splicing fitness (ln)” value reads like this: (30 °C) -3.33 ± 0.19; (37 °C) -2.46 ± 0.22.

Consider CCGUAGCAAUAUUACGAGUU, for which the “self-splicing fitness (ln)” value runs as follows: (30 °C) -3.11 ± 0.15; (37 °C) -3.07 ± 0.18. The matching figures for CCGUAGCAAUAUUACGAUAG: -1.22 ± 0.29 and -0.918 ± 0.18.

Take CCGUAGCAAUAUUACGCCGA: the “self-splicing fitness (ln)” value is, setting by setting: (30 °C) -2.64 ± 0.22; (37 °C) -1.99 ± 0.19. For the sequence CCGUAGCAAUAUUACGCCGC, the “self-splicing fitness (ln)” value was -3.84 ± 0.26 (30 °C) and -2.68 ± 0.34 (37 °C).

With CCGUAGCAAUAUUACGCGUC, the “self-splicing fitness (ln)” value reads like this: (30 °C) -3.42 ± 0.15; (37 °C) -1.78 ± 0.15. The matching figures for CCGUAGCAAUAUUACGGGGU: -3.96 ± 0.24 and -1.71 ± 0.2. For CCGUAGCAAUAUUACGGUAC, for the setting “30 °C”, the “self-splicing fitness (ln)” value is -3.37 ± 0.3. As for CCGUAGCAAUAUUACGUAAA, the “self-splicing fitness (ln)” value by setting is: (30 °C) -3.22 ± 0.13; (37 °C) -2.38 ± 0.23. The like results for CCGUAGCAAUAUUACGUCUU were, in that order, -4.01 ± 0.34 and -2.96 ± 0.23. The like results for CCGUAGCAAUAUUACGUGUG were, in that order, -2.36 ± 0.095 and -1.06 ± 0.082.

CCGUAGCAAUAUUACGUGUU: the “self-splicing fitness (ln)” value reads like this: (30 °C) -3.35 ± 0.2; (37 °C) -2.47 ± 0.18. On to CCGUAGCAAUAUUACGUUUG, for which the “self-splicing fitness (ln)” value reads like this: (30 °C) -1 ± 0.081; (37 °C) -0.134 ± 0.096.

For the sequence CCUAAGCAAUAUUACGAAAG, the “self-splicing fitness (ln)” value reads like this: (30 °C) -1.75 ± 0.18; (37 °C) 0.000192 ± 0.18. Regarding CCUAAGCAAUAUUACGAAUU, the “self-splicing fitness (ln)” value is -3.89 ± 0.22 (30 °C) and -1.79 ± 0.21 (37 °C). The like results for CCUAAGCAAUAUUACGACGA were, in that order, -2.67 ± 0.24 and -2.1 ± 0.38.

On to CCUAAGCAAUAUUACGACGU, for which the “self-splicing fitness (ln)” value was -3.61 ± 0.29 (30 °C) and -2.17 ± 0.22 (37 °C). The matching figures for CCUAAGCAAUAUUACGAGGA: -1.99 ± 0.15 and -1.85 ± 0.13. The matching figures for CCUAAGCAAUAUUACGAGUU: -4.08 ± 0.2 and -2.22 ± 0.14. The like results for CCUAAGCAAUAUUACGAUGA were, in that order, -3.09 ± 0.21 and -1.84 ± 0.18.

Consider CCUAAGCAAUAUUACGCAUU, for which the “self-splicing fitness (ln)” value is -3.56 ± 0.29 (30 °C) and -2.2 ± 0.27 (37 °C). The like results for CCUAAGCAAUAUUACGCCAG were, in that order, -2.8 ± 0.26 and -2.13 ± 0.29. As for CCUAAGCAAUAUUACGCCAU, the “self-splicing fitness (ln)” value runs as follows: (30 °C) -4.47 ± 0.46; (37 °C) -2.48 ± 0.34.

Consider CCUAAGCAAUAUUACGCCCG, for which the “self-splicing fitness (ln)” value (30 °C) is -2.22 ± 0.22 and the “self-splicing fitness (ln)” value (37 °C) was -0.795 ± 0.26. Take CCUAAGCAAUAUUACGCCGG: the “self-splicing fitness (ln)” value was -3.61 ± 0.24 (30 °C) and -2.57 ± 0.21 (37 °C).
